Laboratory results reported in patent publication US20230105457A1, “Immunogenic Compounds For Treatment Of Adrenal Cancer” (ENTEROME S.A., priority 2019, published 2023).
Read-outs that look alike come from different tables or passages of the source.

Assays:
HLA-A*0201 = HLA-A*0201 (Homo sapiens, UniProt P04439, D140Y/D185E/D98H/E176V/E277Q/G131W/G231S/I119V/I121R/I166T/I218V/L300P/L318F/N151K/N90K/P208A/P217A/Q86G/Q94H/R138H/R169H/T345S)
Procedure: T2 cells (2·10^5 cells per well) are incubated with decreasing concentrations of peptides from 100 μM to 0.1 μM in a AIMV medium supplemented with 100 ng/μl of human P2m at 37° C. for 16 hours.
The analysis is achieved by FACS (Guava Easy Cyte).
The relative affinity is then determined as follows:
Each peptide is solubilized by taking into account the amino acid composition. […] Other peptides are resuspended in water or PBS pH7.4.
T2 cells (2·10^5 cells per well) were incubated with decreasing concentrations of peptides from 100 μM to 0.1 μM in a AIMV medium supplemented with 100 ng/μl of human P2m at 37° C. for 16 hours.
The analysis was achieved by FACS (Guava Easy Cyte).

[1] = system: splenocytes of HLA-A2 (CB6F1-Tg(HLA-A*0201/H2-K^b)A*0201) mice; experiment: ELISPOT-IFNγ assay on splenocytes of vaccinated HLA-A2 humanized mice (Example 9); type: in vivo, mouse; settings: 100 μg s.c. d0 and d14 with T13L helper and IFA; compared to the respective human reference epitopes
From the text: Briefly, HLA-A2 humanized mice (HLA-A2 (CB6F1-Tg(HLA-A*0201/H2-K^b)A*0201) were assigned randomly (based on mouse sex and age) to experimental groups, wherein each group was immunized with a specific vaccination peptide (vacc-pAg) combined to a common helper peptide (h-pAg T13L; sequence: […]; SEQ ID NO: 280; Bhasin M, Singh H, Raghava G P (2003) MHCBN: a comprehensive database of MHC binding and non-binding peptides. Bioinformatics 19: 665-666) (as outlined in Table 15 below). The vacc-pAg were compared in couples (group 1 vs. group 2, group 1 vs. group 3; group 1 vs. group 4; group 5 vs. group 6; group 7 vs. group 8). Thereby, both native and optimized versions of a single peptide were compared in each wave.
The animals were immunized on day 0 (d0) with a prime injection, and on d14 with a boost injection. Each mouse was injected s.c. at tail base with 100 μL of an oil-based emulsion that contained: • 100 μg of vacc-pAg (25 μL of 4 mg/mL stock per mouse); • 150 μg of h-pAg (15 μL of 10 mg/mL stock per mouse); • 10 μL of PBS to reach a total volume of 50 μL (per mouse); • Incomplete Freund's Adjuvant (IFA) added at 1:1 (v:v) ratio (50 μL per mouse).
A separate emulsion was prepared for each vacc-pAg, as follows: IFA reagent was added to the vacc-pAg/h-pAg/PBS mixture in a 15 mL tube and mixed on vortex for repeated cycles of 1 min until forming a thick emulsion.
Seven days after the boost injection (i.e. on d21), the animals were euthanized and the spleen was harvested. Splenocytes were prepared by mechanical disruption of the organ followed by 70 μm-filtering and Ficoll density gradient purification.
The splenocytes were immediately used in an ELISPOT-IFNγ assay (Table 16). Experimental conditions were repeated in triplicates, using 2*105 total splenocytes per well, and were cultured in presence of vacc-pAg (10 μM), lonomycin (0.1 μM) plus PMA (1 μM) or medium-only to assess for their capacity to secrete IFNγ. The commercial ELISPOT-IFNγ kit (Diaclone Kit Mujrine IFNγ ELISpot) was used following the manufacturer's instructions, and the assay was performed after about 19 h of incubation.
Spots were counted on a CTL ELISpot reader. Data plotting and statistical analysis were performed with the Prism-5 software (GraphPad Software Inc.).
The data were then normalized as a number of specific spots (the average counts obtained in the ‘medium only’ condition being subtracted) per 50*103 total T cells.
The individual average values (obtained from the triplicates) were next used to plot the group average values. As the functional capacity of T cells might vary from individual to individual, the data were also expressed as the percentage of the ionomycin plus PMA response per individual (see FIG. 11).

[2] = T2 cell line, HLA-A*0201, Example 13, protocol as in Example 3
[3] = HLA-A*0201, HIV peptide printed as 1

Substance: YLPFGFILV [IL13RA2-B5]
- Concentration of peptide that induces 20% of HLA-A2 expression (HLA-A*0201; [2]): 1.5 µM

Substance: YMPFGFILV [IL13RA2-B4]
- Concentration of peptide that induces 20% of HLA-A2 expression (HLA-A*0201; [2]): 4.5 µM

Substance: FMPFGFILGV [IL13RA2-B3]
- Concentration of peptide that induces 20% of HLA-A2 expression (HLA-A*0201; [2]): 3.3 µM

Substance: RLSSYLVEI [FOXM1-B]
- Concentration of peptide that induces 20% of HLA-A2 expression (HLA-A*0201; Table 14, Example 8): 46.7 µM

Substance: YTLGEFLYI [BIRC5-B2]
- Concentration of peptide that induces 20% of HLA-A2 expression (HLA-A*0201; Table 14, Example 8): 14.7 µM
- T cell responses in the ELISPOT-IFNγ assay (in words) [1]: induced improved T cell responses

Substance: YLYTFLIST [IL13RA2-B2]
- In vitro binding affinity (HLA-A*0201; [3]): 5.97
- Concentration of peptide that induces 20% of HLA-A2 expression (HLA-A*0201; [2]): 4.5 µM

Substance: FMPFGFILPI [IL13RA2-B6]
- Concentration of peptide that induces 20% of HLA-A2 expression (HLA-A*0201; [2]): 5.9 µM

Substance: ALPFGFILV [1A9V, reference compound]
- Concentration of peptide that induces 20% of HLA-A2 expression (HLA-A*0201; [2]): 20.9 µM
- Concentration of peptide that induces 20% of HLA-A2 expression (HLA-A*0201; Table 12, Example 7): 36.5 µM

Substance: RVSSYLVPI (listed as Homo sapiens) [FOXM1-H, reference compound]
- Concentration of peptide that induces 20% of HLA-A2 expression (HLA-A*0201; Table 14, Example 8): 37.6 µM

Substance: GLLGEFLQI [BIRC5-B3]
- Concentration of peptide that induces 20% of HLA-A2 expression (HLA-A*0201; Table 14, Example 8): 22.9 µM
- T cell responses in the ELISPOT-IFNγ assay (in words) [1]: induced improved T cell responses

Substance: HIV: Reference peptide HIV pol 589-597, positive control (ISPIETVPV; UniProt P04585 589-597, looked up, fragment) [reference compound]
- In vitro binding affinity (HLA-A*0201; [3]): 1
- Concentration of peptide that induces 20% of HLA-A2 expression (HLA-A*0201; Table 17, Example 12): 0.85 µM
- In vitro binding affinity (HLA-A*0201; Table 17, Example 12, relative affinity vs HIV): 1.00
- Relative HLA-A2 labelling on T2 cells (HIV at 100 μM = 100) (HLA-A*0201; Table 18, peptide concentration 0.1 μM): 2.405
- Relative HLA-A2 labelling on T2 cells (HIV at 100 μM = 100) (HLA-A*0201; Table 18, peptide concentration 1 μM): 22.14
- Relative HLA-A2 labelling on T2 cells (HIV at 100 μM = 100) (HLA-A*0201; Table 18, peptide concentration 10 μM): 84.725
- Relative HLA-A2 labelling on T2 cells (HIV at 100 μM = 100) (HLA-A*0201; Table 18, peptide concentration 100 μM): 100

Substance: LMLGEFLKL [2M, reference compound]
- Concentration of peptide that induces 20% of HLA-A2 expression (HLA-A*0201; Table 17, Example 12): 2.87 µM
